Results on 32 sequences are retold here after the supplement of paper PMC10201428.

Series [1] concerns VchCAST RNA-guided transposition machinery (E. coli BL21(DE3) host, lacZ target). In words: relative integration efficiency (T-LR orientation) vs wild-type transposon end (log2 (normalized fold change)); transposon end mutated: right end (5 bp flank + 75 bp right end); higher = more efficient transposition. The gist of the method: (§1)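 Pools of 1549 left-end or 1849 right-end barcoded transposon variants were cloned into a pUC57 mini-transposon donor and co-transformed into E. coli BL21(DE3) with a T7-driven effector plasmid carrying a CRISPR array, tniQ-cas8-cas7-cas6 and tnsA-tnsB-tnsC. Plating used 0.1 mM IPTG at 37°C for 18 h, and input plasmids and genomic integration junctions were PCR-amplified for Illumina sequencing, with two biological output replicates and four reference barcodes. Relative integration efficiency is the log-transformed fold change of output over input barcode abundance, normalised to the reference barcodes.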

Series [2] shares this test system. In words: relative integration efficiency (T-RL orientation) vs wild-type transposon end (log2 (normalized fold change)); transposon end mutated: right end (5 bp flank + 75 bp right end); higher = more efficient transposition. A digest of the protocol: as §1

± gives the standard deviation of the averaged measurements.

On to “ACATTTGTTGATACAACCATAAGTTGATATTTTCAACCATAAGTTGATATTTTTCACAACCATAAAATGATAATTACTCTGATCATAGTCAGACCAACATTGCTACGACCCGTATTCGCACCGACAC”, for which the “relative integration efficiency (log2)” value in series [1] is -0.0651 ± 0.34; in series [2] it was 0.228 ± 0.008.
The like results for “ACATTTGTTGATACAACCATAAGTTGATATTTTCAACCATAAGTTGATATTTTTCACAACCATAAAGTGATATTTACTCTGATCATAGTCAGACCAACATTGCTACGACCCGTATTCGCACCGACAC” were, in that order, -0.145 ± 0.024 and 0.196 ± 0.011.
The like results for “ACATTTGTTGATACAACCATAAGTTGATATTTTCAACCATAAGTTGATATTTTTCACAACCATAAGTTGATATTTTCTCTGATCATAGTCAGACCAACATTGCTACGACCCGTATTCGCACCGACAC” were, in that order, -0.207 ± 0.25 and 0.214 ± 0.079.
The corresponding values for “ACATTTGTTGATACAACCATAAGTTGATATTTTCAACCATAAGTTGATATTTTTCACAACCATATATTGATATCTCCTCTGATCATAGTCAGACCAACATTGCTACGACCCGTATTCGCACCGACAC” are -0.115 ± 0.22 and -0.102 ± 0.021.
On to “ACATTTGTTGATACAACCATAAGTTGATATTTTCAACCATAAGTTGATATTTTTCACACCCATAAATTGATAATTACTCTGATCATAGTCAGACCAACATTGCTACGACCCGTATTCGCACCGACAC”, for which the “relative integration efficiency (log2)” value was -0.132 ± 0.17 in series [1] and 0.0466 ± 0.027 in series [2].
The like results for “ACATTTGTTGATACAACCATAAGTTGATATTTTCAACCATAAGTTGATATTTTTCACACCCATAAATTGATATTGCCTCTGATCATAGTCAGACCAACATTGCTACGACCCGTATTCGCACCGACAC” were, in that order, 0.248 ± 0.18 and 0.348 ± 0.062.
Take “ACATTTGTTGATACAACCATAAGTTGATATTTTCAACCATAAGTTGATATTTTTCAGTGGGTATTTAACTATAACGCTCTGATCATAGTCAGACCAACATTGCTACGACCCGTATTCGCACCGACAC”: the “relative integration efficiency (log2)” value in series [1] was 2.85 ± 0.1; in series [2] it was -0.302 ± 0.092.
For the sequence “ACATTTGTTGATACAACCATAAGTTGATATTTTCAACCATATATTGATATCTCTCACAACCATAAAATGATAATTACTCTGATCATAGTCAGACCAACATTGCTACGACCCGTATTCGCACCGACAC”, the “relative integration efficiency (log2)” value in series [1] was -0.461 ± 0.17; in series [2] it was -0.54 ± 0.12.
Consider “ACATTTGTTGATACAACCATAAGTTGATATTTTCAACCATATATTGATATCTCTCACAACCATAAAGTGATATTTACTCTGATCATAGTCAGACCAACATTGCTACGACCCGTATTCGCACCGACAC”, for which the “relative integration efficiency (log2)” value is -0.077 ± 0.032 in series [1] and -0.324 ± 0.14 in series [2].
The like results for “ACATTTGTTGATACAACCATAAGTTGATATTTTCAACCATATATTGATATCTCTCACAACCATAAGTTGATATTTTCTCTGATCATAGTCAGACCAACATTGCTACGACCCGTATTCGCACCGACAC” were, in that order, -0.0553 ± 0.32 and -0.118 ± 0.16.
For the sequence “ACATTTGTTGATACAACCATAAGTTGATATTTTCAACCATATATTGATATCTCTCACAACCATATATTGATATCTCCTCTGATCATAGTCAGACCAACATTGCTACGACCCGTATTCGCACCGACAC”, the results for the “relative integration efficiency (log2)” value in series [1] and in series [2] were 0.206 ± 0.098 and -0.28 ± 0.11, respectively.
With “ACATTTGTTGATACAACCATAAGTTGATATTTTCAACCATATATTGATATCTCTCACACCCATAAATTGATAATTACTCTGATCATAGTCAGACCAACATTGCTACGACCCGTATTCGCACCGACAC”, the “relative integration efficiency (log2)” value was 0.134 ± 0.11 in series [1] and -0.464 ± 0.15 in series [2].
The corresponding values for “ACATTTGTTGATACAACCATAAGTTGATATTTTCAACCATATATTGATATCTCTCACACCCATAAATTGATATTGCCTCTGATCATAGTCAGACCAACATTGCTACGACCCGTATTCGCACCGACAC” are -0.117 ± 0.12 and -0.363 ± 0.0055.
The like results for “ACATTTGTTGATACAACCATAAGTTGATATTTTCAACCATATATTGATATCTCTCAGTGGGTATTTAACTATAACGCTCTGATCATAGTCAGACCAACATTGCTACGACCCGTATTCGCACCGACAC” were, in that order, 2.4 ± 0.039 and -1.15 ± 0.24.
In the case of “ACATTTGTTGATACAACCATAAGTTGATATTTTCACCCATAAATTGATAATTATCACAACCATAAAATGATAATTACTCTGATCATAGTCAGACCAACATTGCTACGACCCGTATTCGCACCGACAC”, the “relative integration efficiency (log2)” value in series [1] is -0.584 ± 0.047; in series [2], -0.0424 ± 0.077.
The corresponding values for “ACATTTGTTGATACAACCATAAGTTGATATTTTCACCCATAAATTGATAATTATCACAACCATAAAGTGATATTTACTCTGATCATAGTCAGACCAACATTGCTACGACCCGTATTCGCACCGACAC” are -0.211 ± 0.3 and -0.345 ± 0.068.
The like results for “ACATTTGTTGATACAACCATAAGTTGATATTTTCACCCATAAATTGATAATTATCACAACCATAAGTTGATATTTTCTCTGATCATAGTCAGACCAACATTGCTACGACCCGTATTCGCACCGACAC” were, in that order, -0.0829 ± 0.01 and -0.215 ± 0.056.
The corresponding values for “ACATTTGTTGATACAACCATAAGTTGATATTTTCACCCATAAATTGATAATTATCACAACCATATATTGATATCTCCTCTGATCATAGTCAGACCAACATTGCTACGACCCGTATTCGCACCGACAC” are -0.455 ± 0.14 and -0.64 ± 0.15.
With “ACATTTGTTGATACAACCATAAGTTGATATTTTCACCCATAAATTGATAATTATCACACCCATAAATTGATAATTACTCTGATCATAGTCAGACCAACATTGCTACGACCCGTATTCGCACCGACAC”, the “relative integration efficiency (log2)” value in series [1] was determined as 2.73 ± 0.044; in series [2], 2.44 ± 0.29.
The corresponding values for “ACATTTGTTGATACAACCATAAGTTGATATTTTCACCCATAAATTGATAATTATCACACCCATAAATTGATATTGCCTCTGATCATAGTCAGACCAACATTGCTACGACCCGTATTCGCACCGACAC” are -0.177 ± 0.84 and 0.0993 ± 0.059.
The corresponding values for “ACATTTGTTGATACAACCATAAGTTGATATTTTCACCCATAAATTGATAATTATCAGTGGGTATTTAACTATAACGCTCTGATCATAGTCAGACCAACATTGCTACGACCCGTATTCGCACCGACAC” are 2.55 ± 0.051 and -1 ± 0.34.
The like results for “ACATTTGTTGATACAACCATAAGTTGATATTTTCACCCATAAATTGATATTGCTCACAACCATAAAATGATAATTACTCTGATCATAGTCAGACCAACATTGCTACGACCCGTATTCGCACCGACAC” were, in that order, -0.0881 ± 0.35 and -0.631 ± 0.13.
As for “ACATTTGTTGATACAACCATAAGTTGATATTTTCACCCATAAATTGATATTGCTCACAACCATAAAGTGATATTTACTCTGATCATAGTCAGACCAACATTGCTACGACCCGTATTCGCACCGACAC”, the “relative integration efficiency (log2)” value was -0.333 ± 0.49 in series [1] and -0.377 ± 0.053 in series [2].
The corresponding values for “ACATTTGTTGATACAACCATAAGTTGATATTTTCACCCATAAATTGATATTGCTCACAACCATAAGTTGATATTTTCTCTGATCATAGTCAGACCAACATTGCTACGACCCGTATTCGCACCGACAC” are -0.109 ± 0.43 and -0.281 ± 0.16.
In the case of “ACATTTGTTGATACAACCATAAGTTGATATTTTCACCCATAAATTGATATTGCTCACAACCATATATTGATATCTCCTCTGATCATAGTCAGACCAACATTGCTACGACCCGTATTCGCACCGACAC”, the “relative integration efficiency (log2)” value in series [1] is 0.0122 ± 0.21; in series [2], -0.904 ± 0.14.
Turning to “ACATTTGTTGATACAACCATAAGTTGATATTTTCACCCATAAATTGATATTGCTCACACCCATAAATTGATAATTACTCTGATCATAGTCAGACCAACATTGCTACGACCCGTATTCGCACCGACAC”, the “relative integration efficiency (log2)” value in series [1] was 0.36 ± 0.054; in series [2], -0.658 ± 0.16.
For “ACATTTGTTGATACAACCATAAGTTGATATTTTCACCCATAAATTGATATTGCTCACACCCATAAATTGATATTGCCTCTGATCATAGTCAGACCAACATTGCTACGACCCGTATTCGCACCGACAC”, the “relative integration efficiency (log2)” value is 0.258 ± 0.12 in series [1] and -0.468 ± 0.17 in series [2].
The corresponding values for “ACATTTGTTGATACAACCATAAGTTGATATTTTCACCCATAAATTGATATTGCTCAGTGGGTATTTAACTATAACGCTCTGATCATAGTCAGACCAACATTGCTACGACCCGTATTCGCACCGACAC” are 2.31 ± 0.065 and -1.19 ± 0.12.
The corresponding values for “ACATTTGTTGATACAACCATAATATGATAATTACACCCATAATTTGATAATTATCACACCCATAATTTGATATTGCCTCTGATCATAGTCAGACCAACATTGCTACGACCCGTATTCGCACCGACAC” are -0.428 ± 0.015 and -0.262 ± 0.035.
The like results for “ACATTTGTTGATACAACCATAATTACATAATTACACCCATAAATTGATAATTATCACACCCATAAATTGATATTGCCTCTGATCATAGTCAGACCAACATTGCTACGACCCGTATTCGCACCGACAC” were, in that order, -2.85 ± 0.16 and -2.32 ± 0.15.
For the sequence “ACATTTGTTGATACAACCATAATTTGATAATTACACCCATAAATTGATAATTATCACACCCATAAATTGATATTGCCTCTGATCATAGTCAGACCAACATTGCTACGACCCGTATTCGCACCGACAC”, the results for the “relative integration efficiency (log2)” value in series [1] and in series [2] were -0.168 ± 0.26 and -0.314 ± 0.1, respectively.
The like results for “ACATTTGTTGATACAACCATAATTTGATAATTACACCCATAATATGATAATTATCACACCCATAATATGATATTGCCTCTGATCATAGTCAGACCAACATTGCTACGACCCGTATTCGCACCGACAC” were, in that order, -0.228 ± 0.16 and -0.651 ± 0.15.
